Article PMC6887587

Tests used:
[1] = target: FHR4/VHH(T) trifunctional heteromultimer, Clone 2E3 (first single-cell sorting) (human) (UniProt P04003); assay: SPR; Biacore 3000, CM5 chip; 10 000 RU of purified multimer immobilised by amine coupling; C3b 2.5, 5, 10 and 20 µg/mL injected in HBS-EP (10 mM Hepes pH 7.4, 150 mM NaCl, 3 mM EDTA, 0.05% P20) with 20 mM MgCl2, 5 min at 30 µL/min, 5 min dissociation; 1:1 Langmuir fit
[2] = target: FHR4/VHH(T) trifunctional heteromultimer, Clone IA3 (third single-cell sorting) (human); assay: as above

Sequence of UniProt P04003 (P04003 whole entry, looked up, one chain of several): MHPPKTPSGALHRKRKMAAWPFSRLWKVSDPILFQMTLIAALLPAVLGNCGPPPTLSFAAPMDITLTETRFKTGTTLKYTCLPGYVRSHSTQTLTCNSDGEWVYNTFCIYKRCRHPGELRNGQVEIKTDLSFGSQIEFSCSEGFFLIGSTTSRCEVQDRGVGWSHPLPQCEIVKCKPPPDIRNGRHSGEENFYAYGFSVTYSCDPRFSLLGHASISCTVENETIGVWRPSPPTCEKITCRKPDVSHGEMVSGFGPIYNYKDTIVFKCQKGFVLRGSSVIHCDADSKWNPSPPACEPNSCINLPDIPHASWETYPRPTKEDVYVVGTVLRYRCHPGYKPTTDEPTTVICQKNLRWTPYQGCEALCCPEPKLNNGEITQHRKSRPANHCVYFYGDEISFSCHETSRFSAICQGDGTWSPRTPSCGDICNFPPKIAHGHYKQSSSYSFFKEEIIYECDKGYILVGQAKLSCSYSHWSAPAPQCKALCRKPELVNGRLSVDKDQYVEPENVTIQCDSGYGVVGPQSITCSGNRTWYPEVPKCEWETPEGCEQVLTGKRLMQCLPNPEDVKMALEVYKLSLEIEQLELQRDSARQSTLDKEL

Ka [1]: 3.65e+06 M⁻¹
Kd [1]: 274 nM
final C3b binding (RU) [1]: 58 RU
maximum C3b binding at 20 µg/mL C3b (RU) [1]: 100 RU
Ka [2]: 4.48e+06 M⁻¹
Kd [2]: 223 nM
final C3b binding (RU) [2]: 78.6 RU
maximum C3b binding at 20 µg/mL C3b (RU) [2]: 136 RU
Substance: C3b (from UniProt P01024 749-1663; P01024 749-1663) (natural protein)
